Results published in the RNAGym collection of RNA variant scans (doi:10.1073/pnas.2313332121).

B1: TPR t1 (parent)
chain: GACCAAUCUGCCCUCAGAGCUCGAGAACAUCUUCGGAUGCAGAGGAGGCAGGCUUCGGUGGCGCGAUAGCGCCAACGUCCUCAACCUCCAAUGCAUCCCACCACAUGAUGAUGCCUGAAGAGCCUUGGUUUUUUG

Variants of: B1
Test: polymerase ribozyme fitness, log enrichment relative to wild type (log ratio); higher = more active; in vitro selection for triplet polymerase activity
Procedure, shortened: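 Only genotypes with ≥10 input reads and ≥1 read per output were kept after Illumina sequencing of input and output libraries. These libraries were PCR-built, transcribed mutants of each subunit of a heterodimeric triplet polymerase ribozyme, each put through one triplicate in vitro selection round with frozen incubation at −7 °C, gel excision of extended constructs, streptavidin-bead capture and RT-PCR. Fitness is a logarithmic ratio of genotype enrichment to wild-type enrichment, from inverse-variance-weighted replicate averages, with the logarithm in base 2.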

Row | Variant | polymerase ribozyme fitness (log ratio)
1 | A16U C62A A105C | -4.73
2 | G17A C53A A90G A95U | -3.77
3 | A18C C53U A121U | -0.907
4 | C15U C49A C72A U129C U134A G135C | -1.14
5 | G17U U38G G45A C88U C101U | -2.92
6 | A18C G69U | -0.162
7 | A18C G69A | -6.17
8 | G17C G77U A91U C123A U132A | -3.88
9 | A16U G47C G71U | -4.17
10 | C15U A24G A41G C115U | -2.93
11 | G17C G35A C123G G128U | -4.31
12 | A16C G52A | -1.81
13 | G17U G63A U81A G110C | -6.98
14 | A16C C98U G110A C124A | -4.72
15 | G17A U55G C123A | -2.36
16 | A18C G19U C72G C102A C104G U106A C123G | -5.8
17 | G17C A18U C40U C56G C70G A108G A111U | -7.19
18 | G17A G69A C102U C114G U131G | -6.68
19 | A16C G42A | -3.47
20 | A18C C89G U116C C124A | -0.0811
21 | G17A C53A C104U U133A | -2.46
22 | G17U C70A C88A A90G | -4.06
23 | C15U C72G | -1.64
24 | C15U A37C C76G | -2.14

Row | Variant | polymerase ribozyme fitness (log ratio)
25 | A16U A18U | -3.06
26 | C15U G113U | -3.92
27 | A18C C124U | -1.22
28 | A16U G113A | -3.61
29 | A16U A18U U133A | -4.63
30 | G17U G48U C115G G120A | -1.53
31 | A18C C56U U132A | -2.9
32 | A18C C56A C82A C94U U106C | -4.93
33 | A16G U92G C98G C114A | -6.53
34 | A16U C20A C64U U87C U130C | -4.77
35 | G17C U129A | -5.13
36 | G17U G47U | -5.05
37 | G17A C53A C124G | -0.146
38 | C15U A24G A41G C73A C115U | -2.38
39 | A16U A37C G71U A111U | -5.61
40 | G17A G39U G113C | -6.88
41 | G17U G48A A50U G61C G93A U106A | -5.21
42 | A18C C53U C70U | -4.83
43 | A16U U32A A46U A103C A111G | -5.71
44 | G17A A90C | -3.17
45 | G17U G71A G135U | -4.32
46 | A18G C70U | -2.4
47 | A18C G61A A108U C115U C123U | -6.75
48 | A18G C28A U112A | -4.92

Row | Variant | polymerase ribozyme fitness (log ratio)
49 | G17C G47A A95U | -5.58
50 | A18C G71C | -4.19
51 | C15U G52C C62G U78A | -3.9
52 | A16U G23U G61A A84C C114A G117U | -6.96
53 | C15U C28A C72U C76G A121C | -3.19
54 | A16U G17A G93A | -4.25
55 | C15U G17U A74C U78G C80U C115A | -2.32
56 | A18C C62G U87C A90C G110C C115A | -7
57 | G17U A29G A37U U112G | -3.31
58 | A16U C73U A121C | 0.586
59 | G17A G61A C114G C124A | -3.95
60 | C15U C34A G60C C82G A105G G113U | -6.14
61 | A16C C20U C70U | -4.3
62 | G17U G110C | -7.86
63 | A18C C56G C72U C124U | -0.737
64 | A16U G17A G117A | -2.04
65 | A16U A50G U96A U112C G127C | -2.27
66 | A16G C40G | -0.424
67 | A16G C53G U87G U96A U112A | -1.33
68 | A18C C82A A84U | -3.72
69 | A18C G63C C88U C97G C102U C123U | -6.68
70 | G17C A41U U130A | -4.18
71 | A18C A24G G58A U92C | -5.73
72 | A18C A37U G48A | -3.12

Row | Variant | polymerase ribozyme fitness (log ratio)
73 | A16U C56G U125A | -3.24
74 | A18G C34A | -5.57
75 | A16G C73A A90C | -3.02
76 | C15U C62A C79A | -4.11
77 | G17U C70G | -4.78
78 | A16U C34A U109G C123A U129G | -5.83
79 | G17U G71U | -2.1
80 | G17U G61C | -3.76
81 | A16U G60C | -2.17
82 | A16C G42U G57C A118U | -2.43
83 | G17A G60U C79A | -5.25
84 | C15U A41G | -1.83
85 | C15U G44C G93A | -2.63
86 | A16C C123G | -0.273
87 | G17U G63U C73U | -4.41
88 | G17A A91C G93C G120C U131C | -1.37
89 | C15U C56G G61U A66G C73U C94G C97G C98A U112G A119C G135C | -5.66
90 | G17U C123A | -1.2
91 | A18C G58C | -2.1
92 | C15U A46G G69C C86G C124U | -3.98
93 | A16U C22U | -3.56
94 | C15U G52U G61A C98U U125A U131A | -3.15
95 | C15U A27G U32A A46C C82A G117U | -5.76
96 | C15U G60C A91U U129A | -4.69

Row | Variant | polymerase ribozyme fitness (log ratio)
97 | A16G U54C | -1.39
98 | A16U C124A | -0.305
99 | C15U G17A G19A U38G G69C A75U U92G U109C C124U U134G | -5.8
100 | C15U G122A | -1.11
101 | A18C C20A G93A G113A C124U U126G | -4.14
102 | G17A A37U A50C | -4.99
103 | C15U C28G G39U C124A U129G | -5.23
104 | A18C G39U C101A | -3.85
105 | G17U G63U U133A | -3.87
106 | A18C A37G G110C | -6.11
107 | C15U C98U | -2.28
108 | A16G C64U G77U | -1.55
109 | G17U G69U A84C C124A | 1.63
110 | C15U G69U U78C | -0.901
111 | A16G G60A U81A G117U | -4.21
112 | A16C G120A | -2.28
113 | G17A G48U G69C C88G | -5.4
114 | C15U C34A G45C | -6.34
115 | A18C C56G C72U | -1.24
116 | C15U A27C C85A G117C C124G G128A U129G | -6.66
117 | C15U C88A A91C | -2.47
118 | G17A C53U C89U C101A U109G | -6.85
119 | A16U A41G U78G A100U | -3.98
120 | A16U C102A | -3.35

Row | Variant | polymerase ribozyme fitness (log ratio)
121 | A16C C64G G69U C94G G110U | -4.25
122 | G17U G63C | -3.04
123 | G17A A90C C101A C114G | -5.04
124 | C15U C88U A118G | -1.82
125 | G17A C20U G57C G61A | -4.32
126 | A18C G36U | -4.02
127 | G17U C20G G52A G113A A119G | -2.03
128 | C15U C56U G117C | -1.61
129 | A18C A29U | -4.04
130 | A16U A41G G63U C115U | -4.47
131 | A16U C56A G69U G117U | -2.35
132 | G17U A46U C53G G63C A83C C85G C89U A121C C123U U126A | -6.58
133 | A18C U92G | -2.86
134 | A16U A29U U30A A41C C49G A90G G120C | -6.59
135 | G17U G19U G69U A84U G93A | -4.27
136 | G17A U54C G120U | -1.75
137 | G17A G63A | -4.79
138 | C15U G61A C82U C85A C86G | -2.18
139 | C15U A18G A37G U54A G65C A100U C115A | -5.35
140 | G17U G52C C72U | -2.43
141 | G17U A37U G60A C82U | -2.4
142 | C15U G39U G52A | -3.14
143 | C15U C62G C85A | -4.14
144 | G17U G42U G45A G69C U81G C86A C94U C99A A121C | -6.32

Row | Variant | polymerase ribozyme fitness (log ratio)
145 | A16G G47C C56U A74U A121G G128C | -3.74
146 | A16U C34A C64A U109G C123A U129G | -6.08
147 | G17C A43C A83U | -6.26
148 | C15U C40U G61U | -0.881
149 | G17A C70U | -3.03
150 | C15U U132A | -0.984
151 | G17A G42U G57A G120C | -3.79
152 | C15U A41G G57C C62U U112A G122A G135A | -1.87
153 | G17U U21G G47C C115A | -1.81
154 | C15U G63C | -2.18
155 | A16U C56G C115A | -4.04
156 | G17A G63U U133C | -3.8
157 | A18C C86G | -3.25
158 | G17C U38G C70G A95C C99A C104U A105G G110C | -6.76
159 | G17A U116C | -3.7
160 | G17U C97U | -3.45
161 | C15U G65A G69U U87G | -4.77
162 | G17U C20U A26G G42C A83U C124U U130G | -5.83
163 | A16U U59G G69A U96C | -4.5
164 | A18C C114U | -3.82
165 | G17C U133G G135U | -3.94
166 | G17A U78C | -3.04
167 | A18C C62U | -2.83
